# Results published in patent publication US12068729B2, “Anti-factor XII/XIIa antibodies and uses thereof” (Regeneron Pharmaceuticals, Inc., priority 2018, dated 2024).
# T1: human FXIIa (Homo sapiens, UniProt P00748)
# T1 construct: Factor XIIa, a beta-globulin plasma serine protease composed of an amino-terminal heavy chain and a carboxy-terminal light chain; purchased Enzyme Research Laboratories 1212a; host or cells: human plasma (said of the same vendor's proteins used as immunogen)
# T1 sequence (P00748 20-372 limits assumed): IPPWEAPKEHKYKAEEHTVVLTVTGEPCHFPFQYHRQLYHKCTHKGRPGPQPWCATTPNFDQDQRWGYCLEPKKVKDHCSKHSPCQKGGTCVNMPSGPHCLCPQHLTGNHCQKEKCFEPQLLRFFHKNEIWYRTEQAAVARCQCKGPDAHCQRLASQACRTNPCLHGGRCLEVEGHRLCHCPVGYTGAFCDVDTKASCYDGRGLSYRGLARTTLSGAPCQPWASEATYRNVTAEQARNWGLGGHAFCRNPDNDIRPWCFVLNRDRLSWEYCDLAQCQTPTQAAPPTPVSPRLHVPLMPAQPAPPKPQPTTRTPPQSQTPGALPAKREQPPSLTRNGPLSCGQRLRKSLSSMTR
# T1 sequence (P00748 373-615 limits assumed): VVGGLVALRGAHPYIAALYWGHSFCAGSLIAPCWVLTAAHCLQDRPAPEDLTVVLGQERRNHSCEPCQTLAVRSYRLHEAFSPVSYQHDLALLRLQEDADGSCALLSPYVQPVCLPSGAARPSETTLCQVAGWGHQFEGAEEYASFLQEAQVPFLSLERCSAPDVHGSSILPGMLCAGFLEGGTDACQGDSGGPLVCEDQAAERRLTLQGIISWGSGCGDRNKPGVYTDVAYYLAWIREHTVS
# B1: mAb26048: fully human anti-FXII/FXIIa monoclonal antibody, HCVR/LCVR SEQ ID NOs: 18/26 (antibody, V domains shown)
# VH: EVQLVESGGGLVQPRGSLRLSCVASGFTFSDYGMSWVRQAPGKGLEWVSVIGGAGHGTYYADSVKGRFTISRDNSRNTLYLQMNSLRDEDTAVYYCAKKYYWNYVGGMDVWGRGTTVTVSS
# VL: DIQMTQSPSSVSASVGDRVTITCRASQDINNWLAWYQQKPGKAPKLLISTASSLQSGVPSRFSGSGSGTDFTLTISSLQPEDFATYYCQQANSLPFTFGPGTKVDIK
# B2: mAb26049: fully human anti-FXII/FXIIa monoclonal antibody, HCVR/LCVR SEQ ID NOs: 34/42 (antibody, V domains shown)
# VH: EVQLVESGGDLVQPGGSLRLSCAASGFTFNTYAMHWVRQAPGKGLEYISAIDTKGGSTYYADSVKGRFTISRDNSKNAQYLQMDSLRVEDMAVYYCARGFGLDVWGQGTTVTVSS
# VL: DVVMTQSPLSLAVTLGQPASISCRSSQSLGYSDGNTYLNWFQQRPGQSPRRLIYKVSNRDSGVPDRFSGSGSGTDFTLKINRVETVDVGVYYCMQATHWPYTFGQGTKLEIK
# B3: mAb26036: fully human anti-FXII/FXIIa monoclonal antibody, HCVR/LCVR SEQ ID NOs: 2/10 (antibody, V domains shown)
# VH: QVQLVQSGAEVKKPGASVTVSCKASGYTFTSYYLHWVRQAPGQGLEWMGIINPSGGSTSYAQKFQGRVTMTRDTSTSTVYMELSSLRSEDTAVYYCARGVTTVTTYYHYYNMDVWGQGTTVTVSS
# VL: DIQMTQSPSSLSASVGDRVTITCRASQGISNYLAWFQQKPGKAPKSLIYAASSLQSGVPSKFSGSGSGTDFTLTISSLQPEDFATYYCQKYNTYPLTFGGGTKVEIK
# System: Intrinsic and Common pathways of the coagulation cascade
# Test: Activated Partial Thromboplastin Time (aPTT) in pooled normal human plasma
# Assay type: biochemical
# Conditions: dose response curves, pooled normal human plasma
# Text: (§1) This Example describes the inhibitory activity of selected antibodies, as determined by four functional plasma assays: 1) Activated Partial Thromboplastin Time (aPTT), 2) Prothrombin Time (PT), 3) Thrombin Generation Assay (TGA) triggered by ellagic acid and 4) TGA triggered by Tissue Factor. The aPTT test evaluates all clotting factors of the Intrinsic and Common pathways of the coagulation cascade by measuring time for a clot to form after the addition of calcium and ellagic acid, whereas the PT test evaluates all clotting factors of the Extrinsic and Common pathways of the coagulation cascade after the addition of calcium and Tissue Factor. The TGA triggered by ellagic acid measures the rate and amount of thrombin generated via the Intrinsic and Common pathways whereas TGA triggered by Tissue Factor measures the rate and amount of thrombin generated via the Extrinsic and Common pathways.
# (§2) The aPTT was determined on Diagnostica Stago STart4 Hemostasis Analyzer in the following manner: A total of 50 ul of pooled normal human plasma was added to a cuvette at 37° C. After 1 min, 5 ul of a 2× serially diluted test article (antibody or small molecule inhibitor) in PBS was added to the cuvette and allowed to incubate for 5 min. Then 50 ul of APPT-XL Ellagic Acid (Thermo Scientific) was added and allowed to incubate for 300 seconds before 50 ul of 20 mM calcium chloride (Thermo Scientific) was added to start the reaction. The measured clot time for the test article concentration was normalized to baseline (no drug) plasma clot time and plotted against log molar concentration of the test article. The results were analyzed using nonlinear regression (4-parameter logistics) with Prism 5 software (GraphPad) to obtain doubling time concentration.
row,Molecule,effect on plasma aPTT (in words)
1,B1,prolonged the aPTT
2,B2,prolonged the aPTT
3,B3,prolonged the aPTT

# System: Extrinsic and Common pathways of the coagulation cascade
# Test: Prothrombin Time (PT) in pooled normal human plasma
# Assay type: biochemical
# Conditions: dash cells; dose up to 4 uM
# Text: as §1
# as §2, with “The PT” for “The aPTT”, “following manner.” for “following manner:”, “Then 100” for “Then 50”, “of Tissue Factor (TriniCLOT PT Excel, Diagnostica Stago)” for “of APPT-XL Ellagic Acid (Thermo Scientific) was added and allowed to incubate for 300 seconds before 50 ul of 20 mM calcium chloride (Thermo Scientific)”
row,Molecule,C2xt of Prothrombin Time (PT) - Extrinsic Pathway
1,B1,— (no inhibitory effect on clotting time with a dose up to 4 uM)
2,B2,— (no inhibitory effect on clotting time with a dose up to 4 uM)
3,B3,— (no inhibitory effect on clotting time with a dose up to 4 uM)

# Same assay, conditions: dose response curves, pooled normal human plasma
row,Molecule,effect on plasma PT (in words)
1,B1,without increasing PT
2,B2,without increasing PT
3,B3,without increasing PT

# System: thrombin generated via the Intrinsic and Common pathways
# Test: Thrombin Generation Assay (TGA) triggered by ellagic acid
# Assay type: biochemical, human
# Conditions: Intrinsic Pathway Activation with Ellagic Acid
# Text: as §1
# The thrombin generation profile was determined in a Thermo Scientific Hemker Thrombinoscope in the following manner: A total of 55 ul of pooled normal human plasma was added to a well of a microplate at 37° C. Then 5 ul of a 2× serially diluted test article (antibody or small molecule inhibitor) in PBS was added to the well of the microplate and allowed to incubate for 30 min. 15 ul of APPT-XL Ellagic Acid (Thermo Scientific) was diluted in MP reagent then added to the well and allowed to incubate for 45 min. Then 15 ul of Fluo Flu Cal substrate (Diagnostica Stago) was added immediately before a continuous 90 min reading of the microplate. The measured real-time thrombin concentration values were plotted against time to yield a thrombogram profile for each concentration of the test article used.
Molecule,Concentration required for ↑ lag time by 2× [nM],Concentration required for ↓ endogenous thrombin potential by ½ [nM],Concentration required for ↓ thrombin peak by ½ [nM]
B1,150,250,250
B2,200,250,250
B3,175,250,250

# Target: T1, human FXIIa
# Test: Surface plasmon resonance (Biacore 4000) binding kinetics, hFXIIa
# Conditions: 25° C.
row,Molecule,100 nM Ag Bound (RU)
1,B1,267.8
2,B2,162.4
3,B3,89.9

# Same assay, conditions: 37° C.
row,Molecule,100 nM Ag Bound (RU)
1,B1,335.6
2,B2,251.5
3,B3,166.52
